Results from patent US20230020362A1, “INFECTIOUS DISEASE VACCINES” (priority 2015, published 2023).

Experiments:
Test in all cases: ProImmune REVEAL binding assay
A*02:01 = A*02:01 (Homo sapiens, UniProt P04439, D140Y/D185E/D98H/E176V/E277Q/G131W/G231S/I119V/I121R/I166T/I218V/L300P/L318F/N151K/N90K/P208A/P217A/Q86G/Q94H/R138H/R169H/T345S)
B*27:05 = B*27:05 (Homo sapiens, UniProt P01889, D138H/D201E/E176V/E204Q/G107R/H137Y/K202T/N104T/N87E/Q56L/Q94K/R106L/R155S/R180L/S101D/S121N/S48T/Y140D/Y33H/Y91C)
A*11:01 = A*11:01 (Homo sapiens, UniProt P04439, A114D/D185E/E176A/F33Y/L180Q/S129P/T187R)
H-2Kb = target: T1, H-2Kb (Mus musculus, UniProt P01901)
T1 sequence (P01901 22-295 limits assumed): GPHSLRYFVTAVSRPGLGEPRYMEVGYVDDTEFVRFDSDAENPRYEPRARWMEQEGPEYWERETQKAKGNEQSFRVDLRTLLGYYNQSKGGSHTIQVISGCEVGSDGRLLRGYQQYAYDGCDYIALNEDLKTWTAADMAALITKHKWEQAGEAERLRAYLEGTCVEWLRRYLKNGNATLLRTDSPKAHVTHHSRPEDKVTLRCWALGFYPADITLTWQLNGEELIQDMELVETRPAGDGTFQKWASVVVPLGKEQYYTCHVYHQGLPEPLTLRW
T1 sequence (P01887 21-119 partner): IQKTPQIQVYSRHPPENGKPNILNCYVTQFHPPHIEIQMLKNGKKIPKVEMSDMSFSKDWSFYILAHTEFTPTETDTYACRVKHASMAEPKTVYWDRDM

A*24:02 = A*24:02 (Homo sapiens, UniProt P04439, D101N/D140Y/D185E/E176V/E190D/F33S/G103R/G107R/I119L/I121M/I306V/K335N/L105A/L180Q/L300P/N151K/N90K/Q86E/Q94H/R106L/R138H/R89G/T104I/T345S/V100E/W191G/Y123F)
A*03:01 = A*03:01 (Homo sapiens, UniProt P04439)
B*07:02 = B*07:02 (Homo sapiens, UniProt P01889)
A*01:01 = A*01:01 (Homo sapiens, UniProt P04439, A114D/A174V/A182V/D101N/D185E/E176A/E190D/L180R/Q94H/R68K/S129P/T187R/V100A/V91M/W191G)

Sequence: AISGDDCVV
- REVEAL® score at 0 h (A*02:01): 91.1

Sequence: AMTDTTPFG
- REVEAL® score at 0 h (A*02:01): 91.9

Sequence: ARGYISTRV
- REVEAL® score at 0 h (B*27:05): 125.3

Sequence: ATFTMRLLS
- REVEAL® score at 0 h (A*11:01): 58.5
- REVEAL® score at 0 h (H-2Kb): 55.6

Sequence: CHATFTMRL
- REVEAL® score at 0 h (H-2Kb): 60.3
- REVEAL® score at 0 h (A*24:02): 75.9

Sequence: CVYNMMGKR
- REVEAL® score at 0 h (A*11:01): 113.2
- REVEAL® score at 0 h (A*03:01): 81.6

Sequence: FKLTYQNKV
- REVEAL® score at 0 h (B*27:05): 53.7

Sequence: FKPGTSGSP
- REVEAL® score at 0 h (H-2Kb): 45.7
- REVEAL® score at 0 h (B*07:02): 50.4

Sequence: GEAAAIFMT
- REVEAL® score at 0 h (A*11:01): 50.3
- REVEAL® score at 0 h (A*02:01): 74.3
- REVEAL® score at 0 h (A*24:02): 58.9

Sequence: GLYGNGVVT
- REVEAL® score at 0 h (A*02:01): 87.7

Sequence: GQQRVFKEK
- REVEAL® score at 0 h (A*11:01): 85.5
- REVEAL® score at 0 h (A*03:01): 59.6
- REVEAL® score at 0 h (A*02:01): 47.1
- REVEAL® score at 0 h (B*27:05): 95.4

Sequence: GTYGLNTFT
- REVEAL® score at 0 h (A*11:01): 63.6

Sequence: HATFTMRLL
- REVEAL® score at 0 h (H-2Kb): 69.5

Sequence: HTMWHVTRG
- REVEAL® score at 0 h (A*11:01): 56.3

Sequence: HWTEAKMLL
- REVEAL® score at 0 h (A*24:02): 103.2

Sequence: IPERSWNSG
- REVEAL® score at 0 h (B*07:02): 45.2

Sequence: ISGDDCVVK
- REVEAL® score at 0 h (A*11:01): 88.7

Sequence: IVDLMCHAT
- REVEAL® score at 0 h (A*02:01): 62.7

Sequence: KLTYQNKVV
- REVEAL® score at 0 h (A*02:01): 92.3

Sequence: KQWFLDLPL
- REVEAL® Score (A*02:01): 86.0

Sequence: LAPTRVVAA
- REVEAL® score at 0 h (H-2Kb): 102.5

Sequence: LGCGRGGWS
- REVEAL® score at 0 h (A*24:02): 74.8

Sequence: LLCDIGESS
- REVEAL® score at 0 h (A*02:01): 93.9

Sequence: LMCHATFTM
- REVEAL® score at 0 h (A*02:01): 72.9
- REVEAL® score at 0 h (H-2Kb): 59.0
- REVEAL® score at 0 h (B*27:05): 98.2
- REVEAL® score at 0 h (A*24:02): 99.5

Sequence: LMRRGDLPV
- REVEAL® score at 0 h (A*02:01): 82.3
- REVEAL® score at 0 h (B*07:02): 178.9

Sequence: LMYFHRRDL
- REVEAL® score at 0 h (A*02:01): 97.8
- REVEAL® score at 0 h (H-2Kb): 54.9
- REVEAL® score at 0 h (B*07:02): 119.6

Sequence: LSRNSTHEM
- REVEAL® score at 0 h (H-2Kb): 51.1
- REVEAL® score at 0 h (B*07:02): 124.5

Sequence: MAMTDTTPF
- REVEAL® score at 0 h (B*07:02): 117.4
- REVEAL® score at 0 h (A*24:02): 51.3

Sequence: MCHATFTMR
- REVEAL® score at 0 h (A*11:01): 91.0
- REVEAL® score at 0 h (A*03:01): 86.8

Sequence: MGEAAAIFM
- REVEAL® score at 0 h (A*02:01): 50.6

Sequence: MWHVTRGAV
- REVEAL® score at 0 h (A*02:01): 62.7

Sequence: NMMGKREKK
- REVEAL® score at 0 h (A*11:01): 77.9

Sequence: PERVILAGP
- REVEAL® score at 0 h (B*07:02): 56.1

Sequence: PLSRNSTHE
- REVEAL® score at 0 h (B*07:02): 65.0

Sequence: QQRVFKEKV
- REVEAL® score at 0 h (H-2Kb): 63.4

Sequence: RQWFFDLPL
- REVEAL® Score (A*02:01): 80.5

Sequence: RRGDLPVWL
- REVEAL® score at 0 h (B*27:05): 144.8

Sequence: SRNSTHEMY
- REVEAL® score at 0 h (B*07:02): 52.0

Sequence: TLLCDIGES
- REVEAL® score at 0 h (A*02:01): 63.9

Sequence: TMWHVTRGA
- REVEAL® score at 0 h (A*02:01): 112.0

Sequence: TPFGQQRVF
- REVEAL® score at 0 h (B*07:02): 112.7

Sequence: TTDISEMGA
- REVEAL® score at 0 h (A*01:01): 68.4

Sequence: TVWFVPSIK
- REVEAL® score at 0 h (A*11:01): 92.2

Sequence: VGTYGLNTF
- REVEAL® score at 0 h (A*24:02): 96.0

Sequence: VVAAEMEEA
- REVEAL® score at 0 h (A*02:01): 92.2

Sequence: VYNMMGKRE
- REVEAL® score at 0 h (A*11:01): 62.5

Sequence: WTEAKMLLD
- REVEAL® score at 0 h (A*24:02): 94.7

Sequence: YFHRRDLRL
- REVEAL® score at 0 h (A*24:02): 87.5

Sequence: YGLNTFTNM
- REVEAL® score at 0 h (H-2Kb): 75.4

Sequence: YNMMGKREK
- REVEAL® score at 0 h (A*11:01): 80.9
